For assay [1], the target named is T1, human TIM-3 (Accession No. JX049979.1) stably expressed on cells (human, UniProt Q8TDQ0 22-301).
T1 construct: whole, on cells; On Jurkat or 293T cells; also called Jurkat/TIM-3; 293T/TIM-3
Kind of assay: flow cytometry, 293T/TIM-3 cells, KD from MFI. For orientation: In flow cytometry, cells or beads pass a laser one at a time.

Assay [2] addresses T1, human TIM-3 (Accession No. JX049979.1) …. Kind of assay: flow cytometry, Jurkat/TIM-3 cells, KD from MFI.
The target is the same in assay [3]. Kind of assay: flow cytometry, 293T/TIM-3 + CD39 cells, KD from MFI.
For assay [4] the target is unchanged. Kind of assay: flow cytometry, Jurkat/TIM-3 + CD39 cells, KD from MFI.
Assay [5] has as its target T2, biotinylated human TIM-3-Fc antigen (in-house product, SEQ ID No: 118) (human, biotinylated). Kind of assay: flow cytometry, inhibition of biotinylated TIM-3-Fc binding to phosphatidylserine on apoptotic Jurkat cells.
Assay [6] concerns the target T2, biotinylated human TIM-3-Fc antigen …. The description is as above. The source holds these as a separate data set.
The target of assay [7] is T3, human CD39 (Accession No. NM_001776.6) expressed on cells (human, UniProt P49961 1-510).
T3 construct: whole, on cells; On Jurkat, 293T or SK-MEL28 cells; also called Jurkat/CD39; 293T/CD39
T3 sequence (looked up): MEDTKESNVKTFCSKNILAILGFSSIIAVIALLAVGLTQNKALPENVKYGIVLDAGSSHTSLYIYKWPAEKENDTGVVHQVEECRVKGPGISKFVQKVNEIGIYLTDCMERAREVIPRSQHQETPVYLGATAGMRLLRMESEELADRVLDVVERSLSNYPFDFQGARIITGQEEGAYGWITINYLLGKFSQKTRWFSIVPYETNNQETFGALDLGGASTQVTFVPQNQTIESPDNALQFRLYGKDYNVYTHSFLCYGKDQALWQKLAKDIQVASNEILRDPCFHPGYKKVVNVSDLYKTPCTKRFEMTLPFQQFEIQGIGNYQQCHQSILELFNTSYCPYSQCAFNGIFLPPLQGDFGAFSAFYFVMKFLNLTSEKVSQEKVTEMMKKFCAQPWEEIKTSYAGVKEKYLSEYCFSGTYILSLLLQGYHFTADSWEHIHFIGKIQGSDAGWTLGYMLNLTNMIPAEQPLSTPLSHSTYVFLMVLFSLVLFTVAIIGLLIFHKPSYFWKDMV
Kind of assay: flow cytometry on a mix of Jurkat, Jurkat/TIM-3, Jurkat/CD39 and Jurkat/TIM-3+CD39 cells in one well, antibody at 0.1 nM, BV421-anti-hIgG, MFI of BV421 per cell group.

Assay [8] concerns the target T2, biotinylated human TIM-3-Fc antigen …. In words: competition ELISA: human Galectin-9 coated, biotinylated human TIM-3-Fc pre-mixed with the antibody dilution series, Streptavidin-HRP, A450; blocked ligand: human Galectin-9. In general terms: An ELISA detects its analyte on a solid surface through an enzyme-linked reagent.
Assay [9] shares this target. The description is as above. The source holds these as a separate data set.
The target is the same in assay [10]. The description is as above. This is another data set of the same source.

The term Kd denotes a measure of binding affinity in units of concentration. Broadly, the IC50 is the midpoint of a concentration-inhibition curve. Higher therefore signals a need for much substance.

Values joined by “and” are separate entries in the source; they are usually repeats but may differ in a detail not shown here. Equal entries are not always repeated. Where two headings read alike, the source gives them in different places.

B1: Hu003_13_F20_sc (antibody)
scFv: QVQLQESGGGLVKPGGSLKLSCAASGFTFSSYYMSWVRQTPDKRLEWVATISNSGGSTYYPDSVKDRFTISRDNAKNTLYLQMSSLKSEDTAMYYCARDPYYTNYVPMDYWGQGTMVTVSSGGGGSGGGGSGGGGSGGGGSDIVMTQSPSFLSASVGDRVTITCKASQYVDTYVAWYQQRPGKAPKPLIYSASTRHTGVPSRFSGSGSGTEFTLTISSLQPEDFATYFCAQYSSSPLTFGGGTKLELK
notes: scFv-Fc homodimer, anti-TIM-3; also called scFv-Fc homodimeric antibody of anti-TIM-3_scFv antibody (humanized) Hu003_13_F20; not shown: GGGG linker and Fc-LALA (IgG1 Fc with L234A and L235A)
With B1, the Kd in [1] worked out at 2.72 nM; in assay [2] it was 0.274 nM; in assay [3], 3.86 nM; in assay [4], 0.339 nM. The IC50 in [5] is 16.7 nM and 6.66 nM and 8.42 nM; in assay [6], 8.56 nM and 8.62 nM. Also, the binding result in assay [7] was “no binding (tested: 0.1 nM)”. Further, the “IC50 (read off the curve)” value in assay [8] is ~0.5 nM and ~1 nM; in assay [9] it was ~0.5 nM and ~0.3 nM; in assay [10], approximately 1 nM.

The values above are taken from patent publication US20260085127A1 (BRIGHTPATH BIOTHERAPEUTICS, published 2026).
